Our source for the reconstituted RLuc signal (RLU/μg protein) and reconstituted RLuc signal values is paper PMC4303335.

In assay [1] the target is H3–K27 substrate peptide of the sensor (no NLS). In words: split reporter.
Assay [2] concerns the target H3–K9 substrate peptide of the sensor with C-terminal NLS (NhRluc8.6-Suv39H1–H3–K9-ChRLuc-NLS). Nature of the assay: split reporter.

“Pc2 chromodomain in the H3–K27 sensor (domain or fragment)” yielded a reconstituted RLuc signal (RLU/μg protein) in assay [1] of 3.67e+07.

For the substance “Suv39H1 chromodomain in the H3–K9 sensor (NhRluc8.6-Suv39H1–H3–K9-ChRLuc) (domain or fragment)”, in assay [2], the reconstituted RLuc signal came out at 3.3e+06 and the reconstituted RLuc signal (RLU/μg protein) came out at 5.26e+06. Regarding “Suv39H1 chromodomain mutant (W64A, W74A) in the H3–K9 sensor (domain or fragment)”, in assay [2], the reconstituted RLuc signal is 1.75e+06.
